Measured values from patent US11202837B2, “Biological materials and uses thereof” (Antikor Biopharma Limited, priority 2014, dated 2021).
Like-named read-outs stand apart in the source and are kept apart here. Where a SMILES comes first, the peptide text is derived from it. [ ]: non-standard residue; d: D form. The star is where a group is joined. ξ: configuration not given here. Dolaproine = CO[C@@H]([C@@H]1CCCN1)[C@@H](C)C(=O)O; Dil = CC[C@H](C)[C@H](NC)[C@@H](CC(=O)O)OC; NMe2Val = CC(C)[C@@H](C(=O)*)N(C)C; ξNMe2Val = CC(C)C(C(=O)*)N(C)C; NMeV = CN[CH](C(=O)O)C(C)C; Ava = NCCCCC(=O)O

Tests used:
[1] = test system: SKBr3 cells; test: Cell killing assay (MTS), SKBr3 cells; type: cell-based, human
Method: (§1) SKBr3, human breast cancer cell line, high HER2 expression levels, up to 1,000,000 receptors per cell [Lazar G A, et al Proc Natl Acad Sci USA. […] When confluency was 70-80%, cells were washed with PBS (2×10 ml) and incubated with trypsin for 5-7 min. Complete media was added and the cells were resuspended by pipetting. The cells were recovered by centrifugation (2 min, 2000 rpm), the supernatant was discarded, and the cells were resuspended in complete DMEM (5 ml). The cells were then counted using a haemocytometer and diluted accordingly. They were plated at 4500 cells/well (200 μl) using attachment factor and incubated overnight at 37° C., 5% CO2 in a humidified atmosphere. U87 is a non-HER2 expressing glioblastoma cell line and was grown in a similar way, plated at 1000 cells/well.
(§2) […] Cell viability was measured using the Promega Aqueous Cell-titre-96™ aqueous one solution cell proliferation kit according to manufacturer's instructions. Briefly, the media was removed and 100 μl of complete phenol red free media, pre-combined with MTS reagent, was added to the cells (20 μl of reagent per 100 μl of media). The plates were read on an ELISA plate reader at 490 nm after a 2 hr incubation in the dark (5% CO2, 37° C.).
(§3) The data (absorption units) were converted to % cell survival by using the untreated controls as the 100% cell survival and the Triton X-100 controls as the 100% cell death. The average absorption value for the latter was subtracted from all the rest of the data in order to get a suitable baseline. The averages were converted to survival and standard error values were obtained for each n value (as a % cell survival). […] Experiments were repeated at least 3 times for each compound tested and a set or an average of the data was plotted and fitted to obtain a dose response curve.
(§4) The cells were recovered by centrifugation (2 min, 2000 rpm), the supernatant was discarded, and the cells were resuspended in complete McCoy's 5A (5 ml). The cells were then counted using a haemocytometer and diluted accordingly. They were plated at 5000 cells/well (200 μl) using attachment factor and incubated overnight at 37° C., 5% CO2 in a humidified atmosphere. U87 is a non-HER2 expressing glioblastoma cell line [Zitron I M et al (2013) BMC Cancer 13:83] and was grown in a similar way, plated at 1000 cells/well (using DMEM media). BT474 is a HER2 expressing breast cancer cell line [Brockhoff G et al (2007) Cell Prolif 40:488-507] and was grown in a similar way, plated at 7500 cells/well (using RPMI media). NCI-N87 is a HER2 expressing gastric cancer cell line [Yamashita-Kashima Y et al (2013) Oncol. Rep 30:1087-93] and was grown in a similar way, plated at 7500 cells/well (using RPMI media).
as §2, with “kit (MTS reagent)” for “kit”
(§5) The data (absorption units) were converted to % cell survival by using the untreated controls as the 100% cell survival and the Triton X-100 controls as the 100% cell death. The average absorption value for the latter was subtracted from all the rest of the data in order to get a suitable baseline. The averages were converted to survival and standard error values were obtained for each n value (as a % cell survival).

[2] = test system: U87 cells; test: Cell killing assay (MTS), U87 cells; type: cell-based
Method: as §1
(§6) The cells were exposed to the various ADCs diluted in complete media for 96 hours at 37° C., 5% CO2 in a humidified atmosphere. Cell viability was measured using the Promega Aqueous Cell-titre-96™ aqueous one solution cell proliferation kit according to manufacturer's instructions. Briefly, the media was removed and 100 μl of complete phenol red free media, pre-combined with MTS reagent, was added to the cells (20 μl of reagent per 100 μl of media). The plates were read on an ELISA plate reader at 490 nm after a 2 hr incubation in the dark (5% CO2, 37° C.).
as §3, §4
as §6, with “kit (MTS reagent)” for “kit”
as §5

[3] = test system: BT474 cells; test: Cell killing assay (MTS), BT474 cells; type: cell-based, human
Method: as §4
as §6, with “kit (MTS reagent)” for “kit”
as §3, with “dose-response” for “dose response”

[4] = SKBr3 Cells (HER2+++), 96 hours, Table 47
[5] = SKBr3 Cells (HER2+++), 96 hours, Table 47, read-out: IC50
[6] = BT474 Cells (HER2++), 96 hours, Table 47
[7] = BT474 Cells (HER2++), 96 hours, Table 47, read-out: IC50
[8] = SKBr3 Cells (HER2 +++), 96 hours, Table 50
[9] = U87 Cells (HER2−), 96 hours, Table 50
[10] = U87 Cells (HER2−), 96 hours, Table 50, read-out: IC50

CC(C)C(NC(=O)C(C(C)C)N(C)C)C(=O)N(C)C(C(=O)N1CCCC1C(=O)N1CCCC1C(=O)NCCCCC(=O)O)C(C)C (centres unmarked) [Free P5C5 (acid) drug, P5C5] (ξNMe2Val-V[NMeV]PP[Ava]-OH; configuration not given here)
IC50 ([1]; Homo sapiens, SK-BR-3, 96 h, read-out: IC50 nM SKBr3 Cells (HER2+++)): 2200 ± 400 nM
IC50 ([2]; Homo sapiens, U-87 MG, 96 h, read-out: IC50 nM U87 Cells (HER2−)): 7300 ± 900 nM

CC[C@H](C)[C@@H]([C@@H](CC(=O)N1CCC[C@H]1[C@H](OC)[C@@H](C)C(=O)N[C@@H](Cc1ccccc1)C(=O)O)OC)N(C)C(=O)[C@@H](NC(=O)[C@H](C(C)C)N(C)C)C(C)C [Free drug Auristatin F] (NMe2Val-V[Dil][Dolaproine]F-OH)
IC50 ([1]; Homo sapiens, SK-BR-3, 96 h, read-out: IC50 pM): > 5.5 nM
IC50 ([3]; Homo sapiens, BT-474, 96 h, read-out: IC50 pM): > 2500 pM
IC50 ([2]; Homo sapiens, U-87 MG, 96 h, read-out: IC50 pM): > 12.5 nM

COc1cc2cc(c1Cl)N(C)C(=O)C[C@H](OC(=O)[C@H](C)N(C)C(=O)CCS)[C@]1(C)O[C@H]1[C@H](C)[C@@H]1C[C@@](O)(NC(=O)O1)[C@H](OC)/C=C/C=C(\C)C2 [Free drug DM1]
IC50 ([1]; Homo sapiens, SK-BR-3, 96 h, read-out: IC50 nM): 47.6 nM
IC50 ([2]; Homo sapiens, U-87 MG, 96 h, read-out: IC50 nM): 50.7 nM

B1: scFv (TCT1067)-MMAF DAR 8.7 (conjugate)
scFv: SGSGGSGQVQLVQSGAEVKKPGESLKISCKGSGYSFTSYWIAWVRQMPGKGLEYMGLIYPGDSDTKYSPSFQGQVTISVDKSVSTAYLQWSSLKPSDSAVYFCARHDVGYCTDRTCAAWPEWLGVWGQGTLVTVSSGGGGSGGGGSGGGGSQSVLTQPPSVSAAPGQKVTISCSGSSSNIGNNYVSWYQQLPGTAPKLLIYGHTNRPAGVPDRFSGSKSGTSASLAISGFRSEDEADYYCASWDYTLSGWVFGGGTKLTVLMASMTGGQQMG
IC50 μg/ml [1, 4]: 0.00091 µg/mL
IC50 [1, 5]: 0.0325 nM
IC50 μg/ml [3, 6]: 0.001 µg/mL
IC50 [3, 7]: 35.7 pM

B2: scFv (TCT1067)-DM1 DAR 5.5 (conjugate)
scFv: B1 scFv
IC50 μg/ml [1, 8]: 0.0078 µg/mL
IC50 μg/ml [2, 9]: 0.419 µg/mL
IC50 [2, 10]: 14.9 nM

B3: scFv (TCT1067)-P5C5 DAR 12.5 (conjugate)
scFv: B1 scFv
IC50 μg/ml ([1]; SKBr3 Cells (HER2+++), 96 hours, Table 48): 0.04 µg/mL
IC50 ([1]; SKBr3 Cells (HER2+++), 96 hours, Table 48, read-out: IC50): 1.42 nM
IC50 μg/ml ([3]; BT474 Cells (HER2++), 96 hours, Table 48): 0.3 µg/mL
IC50 ([3]; BT474 Cells (HER2++), 96 hours, Table 48, read-out: IC50): 10700 pM

B4: scFv (TCT1067)-DM1 DAR 3.5 (conjugate)
scFv: B1 scFv
IC50 μg/ml [1, 8]: 0.0417 µg/mL
IC50 ([1]; SKBr3 Cells (HER2 +++), 96 hours, Table 50, read-out: IC50): 1.49 nM
IC50 μg/ml [2, 9]: 0.641 µg/mL
IC50 [2, 10]: 22.9 nM

B5: scFv (TCT)-P5C5, DAR = 12 (conjugate)
scFv: SGSGGSGQVQLVQSGAEVKKPGESLKISCKGSGYSFTSYWIAWVRQMPGKGLEYMGLIYPGDSDTKYSPSFQGQVTISVDKSVSTAYLQWSSLKPSDSAVYFCARHDVGYCSSSNCAAWPEYFQHWGQGTLVTVSSGGGGSGGGGSGGGGSQSVLTQPPSVSAAPGQKVTISCSGSSSNIGNNYVSWYQQLPGTAPKLLIYGHTNRPAGVPDRFSGSKSGTSASLAISGFRSEDEADYYCAAWDDSLSGWVFGGGTKLTVLMASMTGGQQMG
IC50 μg/ml SKBr3 Cells (HER2+++) ([1]; 96 hours exposure): 5.01 ± 1.9 µg/mL
IC50 ([1]; 96 hours exposure, read-out: IC50 nM SKBr3 Cells (HER2+++)): 179 ± 68 nM
IC50 μg/ml U87 Cells (HER2−) ([2]; 96 hours exposure): 100 µg/mL
IC50 ([2]; 96 hours exposure, read-out: IC50 nM U87 Cells (HER2−)): 3570 nM

B6: scFv (TCT)-MMAF DAR 8 (conjugate)
scFv: B5 scFv
IC50 μg/ml [1, 4]: 0.0053 µg/mL
IC50 [1, 5]: 0.189 nM
IC50 μg/ml [3, 6]: 0.02 µg/mL
IC50 [3, 7]: 714 pM

B7: scFv (TCT)-MMAF-C5, DAR 6.6 (conjugate)
scFv: B5 scFv
IC50 μg/ml ([1]; SKBr3 Cells (HER2+++), 96 hours, Table 46): 0.087 µg/mL
IC50 ([1]; SKBr3 Cells (HER2+++), 96 hours, Table 46, read-out: IC50): 0.0031 nM
IC50 μg/ml ([3]; BT474 Cells (HER2++), 96 hours, Table 46): 0.2 µg/mL
IC50 ([3]; BT474 Cells (HER2++), 96 hours, Table 46, read-out: IC50): 7.14 pM
IC50 μg/ml ([2]; U87 Cells (HER2−), 96 hours, Table 46): >5 µg/mL
